Laboratory results published in PMC6699074, “Structural and functional characterization of a novel cold-active S-formylglutathione hydrolase (SfSFGH) homolog from Shewanella frigidimarina, a psychrophilic bacterium” (Microbial Cell Factories, 2019).

Assays:
[1] = target: S-formylglutathione hydrolase (SfSFGH) from Shewanella frigidimarina (Shewanella frigidimarina); test: AUC; SfSFGH in 150 mM NaCl, 20 mM Tris-HCl pH 8.0, 20 °C, 40,000 rpm, monitored at 280 nm, analysed with SEDFIT
purified protein [2] = substrate: CC(=O)Oc1ccc([N+](=O)[O-])cc1; test: purified protein; type: biochemical, Shewanella frigidimarina; conditions: 20 mM Tris-HCl pH 8.0, 120 mM NaCl, room temperature
purified protein [3] = substrate: CCCCCCCC(=O)Oc1ccc([N+](=O)[O-])cc1; test: purified protein; type: biochemical, Shewanella frigidimarina; conditions: 20 mM Tris-HCl pH 8.0, 120 mM NaCl, room temperature
purified protein [4] = substrate: CCCC(=O)Oc1ccc([N+](=O)[O-])cc1; test: purified protein; type: biochemical, Shewanella frigidimarina; conditions: 20 mM Tris-HCl pH 8.0, 120 mM NaCl, room temperature

stoichiometry N [1] | Molecule | Km (purified protein [2]) | kcat (purified protein [2]) | Vmax (purified protein [2]) [µM/min] | kcat/Km (purified protein [2]) [M⁻¹ s⁻¹] | Km (purified protein [3]) [µM] | Vmax (purified protein [3]) [µM/min] | kcat (purified protein [3]) [s⁻¹] | kcat/Km (purified protein [3]) [M⁻¹ s⁻¹] | Km (purified protein [4]) [µM] | Vmax (purified protein [4]) [µM/min] | kcat (purified protein [4]) [s⁻¹] | kcat/Km (purified protein [4]) [M⁻¹ s⁻¹]
2 | S-formylglutathione hydrolase (SfSFGH) from Shewanella frigidimarina (enzyme) | – | – | – | – | – | – | – | – | – | – | – | –
– | SfSFGH (Shewanella frigidimarina NCIMB 400) (protein) MTIENMSVNKSFGGWHKQYSHQSQTLNCEMRFAIYLPPQASSGKKVPVLYWLSGLTCTDENFMQKAGAQALAAELGIAIVAPDTSPRGENVADDEGYDLGKGAGFYVNATQAPWNRHYRMYDYVVDELPKLIESMFPVSDKRSIAGHSMGGHGALVIALRNADAYQSVSAFSPISNPINCPWGKKALTAYLGRDSATWMEYDASVLMRQATQFVPALVDQGDADNFLVEQLKPEVLEAAAKVKGYPLELNYREGYDHSYYFISSFIENHLRFHAEHLGK | 515 (± 42.8) µM | 0.310 (± 0.0258) s^-1 | – | – | – | – | – | – | – | – | – | –
– | SfSFGH (Shewanella frigidimarina NCIMB 400; W182A) (protein) MTIENMSVNKSFGGWHKQYSHQSQTLNCEMRFAIYLPPQASSGKKVPVLYWLSGLTCTDENFMQKAGAQALAAELGIAIVAPDTSPRGENVADDEGYDLGKGAGFYVNATQAPWNRHYRMYDYVVDELPKLIESMFPVSDKRSIAGHSMGGHGALVIALRNADAYQSVSAFSPISNPINCPAGKKALTAYLGRDSATWMEYDASVLMRQATQFVPALVDQGDADNFLVEQLKPEVLEAAAKVKGYPLELNYREGYDHSYYFISSFIENHLRFHAEHLGK | 1.393 ± 0.136 mM | 1.85 ± 0.092 s⁻¹ | 323 | 1300 | 495 ± 85 | 28.6 | 0.144 ± 0.007 | 300 | 303 ± 49 | 51.7 | 8 ± 0.326 | 26400
